This is an account of results in patent US20220049236A1.

Assay [1] concerns the target HSP70 (UniProt P0DMV8). The experiment in a line: ELISA, plate coated with HSP70. Background: In an ELISA, binding on a coated surface is turned into a signal by an enzyme label.
Assay [2] has as its target HSP70 (UniProt P0DMV8). The experiment in a line: ELISA, plate coated with HSP70, bound protein detected with peroxidase-conjugated anti-human antibody.

Chain of HSP70 (P0DMV8 whole entry): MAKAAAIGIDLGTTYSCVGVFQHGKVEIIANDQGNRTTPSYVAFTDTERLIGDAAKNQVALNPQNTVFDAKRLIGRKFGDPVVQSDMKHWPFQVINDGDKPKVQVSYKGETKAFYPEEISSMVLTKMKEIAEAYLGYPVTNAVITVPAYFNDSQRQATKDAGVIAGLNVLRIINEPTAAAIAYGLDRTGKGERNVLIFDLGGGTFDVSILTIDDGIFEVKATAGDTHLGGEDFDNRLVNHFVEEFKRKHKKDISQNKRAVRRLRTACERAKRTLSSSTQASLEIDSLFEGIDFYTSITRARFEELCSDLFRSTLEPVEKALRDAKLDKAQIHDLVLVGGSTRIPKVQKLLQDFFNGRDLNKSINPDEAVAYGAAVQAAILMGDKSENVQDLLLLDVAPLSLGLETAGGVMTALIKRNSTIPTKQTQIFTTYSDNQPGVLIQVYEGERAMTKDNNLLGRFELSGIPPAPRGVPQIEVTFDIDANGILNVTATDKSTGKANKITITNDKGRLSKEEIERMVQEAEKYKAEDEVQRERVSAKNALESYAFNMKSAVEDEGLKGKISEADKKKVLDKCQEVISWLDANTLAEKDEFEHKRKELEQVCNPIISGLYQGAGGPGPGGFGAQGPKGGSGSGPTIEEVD

B1: Fc-LPD N346, 362, 409Q (Fc fusion)
chain: APPAAGQQQPPREPPAAPGAWRQQIQWENNGQVFSLLSLGSQYQPQRRRDPGAAVPGAAQASAQQPRTPILLIRDQRTAAARTRTAGSSGVTAGRPRPTARHWFQAGYSTSRAREAGASRAEQQTAPGEVPALSNLRPPSRVDGMVGD
Usually EC50 stands for the concentration giving half of the maximal effect. Low values mean an effect from little substance, high ones a need for much substance. With B1, the EC50 in assay [1] was found to be 41 nM; in assay [2] it was 57 nM.
